Consider 38 molecules from patent publication US20140105889A1 (published 2014).

To fix the notation:
B1: GpH7-B3 D270A / GpL16-k0 (antibody, human IgG1)
heavy: not shown
light: DIVMTQSPLSLPVTPGEPASISCQASESLVHSNRNTYLHWYLQKPGQSPQLLIYKVSNRFSGVPDRFSGSGSGTDFTLKISRVEAEDVGVYYCSQNTHVPPTFGQGTKVEIE
notes: B3 variant: anti-glypican-3 IgG1 (constant region B3 = G1d with K439E) with one substitution, EU numbering; also called B3 variant D270A; copies: 2 + 2
B2: GpH7-B3 D270H / GpL16-k0 (antibody, human IgG1)
heavy: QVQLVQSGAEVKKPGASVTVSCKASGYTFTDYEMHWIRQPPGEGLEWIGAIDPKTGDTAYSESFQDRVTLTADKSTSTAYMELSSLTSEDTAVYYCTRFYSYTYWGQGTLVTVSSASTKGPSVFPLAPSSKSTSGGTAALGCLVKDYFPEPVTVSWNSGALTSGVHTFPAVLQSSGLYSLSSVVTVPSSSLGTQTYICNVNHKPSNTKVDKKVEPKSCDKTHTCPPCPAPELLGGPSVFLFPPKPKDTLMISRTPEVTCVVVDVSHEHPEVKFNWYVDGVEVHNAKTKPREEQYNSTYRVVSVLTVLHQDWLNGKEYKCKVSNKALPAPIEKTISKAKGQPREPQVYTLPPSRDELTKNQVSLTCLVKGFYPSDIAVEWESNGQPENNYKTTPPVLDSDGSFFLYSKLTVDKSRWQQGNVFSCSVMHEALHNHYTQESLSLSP
light: B1 light
notes: B3 variant: anti-glypican-3 IgG1 (constant region B3 = G1d with K439E) with one substitution, EU numbering; also called B3 variant D270H; copies: 2 + 2
B3: GpH7-B3 P271H / GpL16-k0 (antibody, human IgG1)
heavy: not shown
light: B1 light
notes: B3 variant: anti-glypican-3 IgG1 (constant region B3 = G1d with K439E) with one substitution, EU numbering; also called B3 variant P271H; copies: 2 + 2
B4: GpH7-B3 P271Y / GpL16-k0 (antibody, human IgG1)
heavy: not shown
light: B1 light
notes: B3 variant: anti-glypican-3 IgG1 (constant region B3 = G1d with K439E) with one substitution, EU numbering; also called B3 variant P271Y; copies: 2 + 2
B5: GpH7-B3 D270Q / GpL16-k0 (antibody, human IgG1)
heavy: not shown
light: B1 light
notes: B3 variant: anti-glypican-3 IgG1 (constant region B3 = G1d with K439E) with one substitution, EU numbering; also called B3 variant D270Q; copies: 2 + 2
B6: GpH7-B3 D270F / GpL16-k0 (antibody, human IgG1)
heavy: not shown
light: B1 light
notes: B3 variant: anti-glypican-3 IgG1 (constant region B3 = G1d with K439E) with one substitution, EU numbering; also called B3 variant D270F; copies: 2 + 2
B7: GpH7-B3 D270S / GpL16-k0 (antibody, human IgG1)
heavy: not shown
light: B1 light
notes: B3 variant: anti-glypican-3 IgG1 (constant region B3 = G1d with K439E) with one substitution, EU numbering; also called B3 variant D270S; copies: 2 + 2
B8: GpH7-B3 D270L / GpL16-k0 (antibody, human IgG1)
heavy: not shown
light: B1 light
notes: B3 variant: anti-glypican-3 IgG1 (constant region B3 = G1d with K439E) with one substitution, EU numbering; also called B3 variant D270L; copies: 2 + 2
B9: GpH7-B3 P271S / GpL16-k0 (antibody, human IgG1)
heavy: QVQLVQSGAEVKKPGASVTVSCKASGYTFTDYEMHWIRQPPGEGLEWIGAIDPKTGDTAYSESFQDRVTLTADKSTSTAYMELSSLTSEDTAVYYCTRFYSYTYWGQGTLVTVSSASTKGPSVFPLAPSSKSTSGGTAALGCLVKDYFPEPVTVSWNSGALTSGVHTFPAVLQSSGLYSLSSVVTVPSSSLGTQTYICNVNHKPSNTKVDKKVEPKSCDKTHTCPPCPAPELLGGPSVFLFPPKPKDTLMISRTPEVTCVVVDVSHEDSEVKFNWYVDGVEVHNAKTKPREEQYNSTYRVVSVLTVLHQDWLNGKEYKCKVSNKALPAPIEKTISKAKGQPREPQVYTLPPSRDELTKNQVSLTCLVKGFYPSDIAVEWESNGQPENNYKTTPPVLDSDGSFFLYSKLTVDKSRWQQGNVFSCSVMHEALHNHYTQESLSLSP
light: B1 light
notes: B3 variant: anti-glypican-3 IgG1 (constant region B3 = G1d with K439E) with one substitution, EU numbering; also called B3 variant P271S; copies: 2 + 2
B10: GpH7-B3 D270V / GpL16-k0 (antibody, human IgG1)
heavy: not shown
light: B1 light
notes: B3 variant: anti-glypican-3 IgG1 (constant region B3 = G1d with K439E) with one substitution, EU numbering; also called B3 variant D270V; copies: 2 + 2
B11: GpH7-B3 D270M / GpL16-k0 (antibody, human IgG1)
heavy: not shown
light: B1 light
notes: B3 variant: anti-glypican-3 IgG1 (constant region B3 = G1d with K439E) with one substitution, EU numbering; also called B3 variant D270M; copies: 2 + 2
B12: GpH7-B3 P271R / GpL16-k0 (antibody, human IgG1)
heavy: not shown
light: B1 light
notes: B3 variant: anti-glypican-3 IgG1 (constant region B3 = G1d with K439E) with one substitution, EU numbering; also called B3 variant P271R; copies: 2 + 2
B13: GpH7-B3 D270I / GpL16-k0 (antibody, human IgG1)
heavy: not shown
light: B1 light
notes: B3 variant: anti-glypican-3 IgG1 (constant region B3 = G1d with K439E) with one substitution, EU numbering; also called B3 variant D270I; copies: 2 + 2
B14: GpH7-B3 P271T / GpL16-k0 (antibody, human IgG1)
heavy: not shown
light: B1 light
notes: B3 variant: anti-glypican-3 IgG1 (constant region B3 = G1d with K439E) with one substitution, EU numbering; also called B3 variant P271T; copies: 2 + 2
B15: GpH7-B3 P271W / GpL16-k0 (antibody, human IgG1)
heavy: not shown
light: B1 light
notes: B3 variant: anti-glypican-3 IgG1 (constant region B3 = G1d with K439E) with one substitution, EU numbering; also called B3 variant P271W; copies: 2 + 2
B16: GpH7-B3 D270N / GpL16-k0 (antibody, human IgG1)
heavy: not shown
light: B1 light
notes: B3 variant: anti-glypican-3 IgG1 (constant region B3 = G1d with K439E) with one substitution, EU numbering; also called B3 variant D270N; copies: 2 + 2
B17: GpH7-B3 P271F / GpL16-k0 (antibody, human IgG1)
heavy: not shown
light: B1 light
notes: B3 variant: anti-glypican-3 IgG1 (constant region B3 = G1d with K439E) with one substitution, EU numbering; also called B3 variant P271F; copies: 2 + 2
B18: GpH7-B3/GpL16-k0 with N325V introduced into GpH7-B3 (antibody, human IgG1)
heavy: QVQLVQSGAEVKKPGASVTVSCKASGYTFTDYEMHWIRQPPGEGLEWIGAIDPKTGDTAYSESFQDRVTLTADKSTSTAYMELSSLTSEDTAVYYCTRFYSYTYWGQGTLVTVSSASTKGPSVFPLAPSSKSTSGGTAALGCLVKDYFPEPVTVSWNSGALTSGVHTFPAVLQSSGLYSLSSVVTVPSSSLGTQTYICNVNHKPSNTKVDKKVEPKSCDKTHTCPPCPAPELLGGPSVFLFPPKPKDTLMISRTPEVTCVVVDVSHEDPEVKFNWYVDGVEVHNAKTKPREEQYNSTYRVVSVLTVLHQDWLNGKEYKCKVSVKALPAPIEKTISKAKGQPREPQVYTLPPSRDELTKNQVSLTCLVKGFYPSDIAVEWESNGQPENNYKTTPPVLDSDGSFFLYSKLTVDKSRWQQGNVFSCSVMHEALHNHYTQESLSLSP
light: B1 light
notes: Anti-glypican-3 human IgG1; constant region B3 (G1d with K439E); Fc variant; also called B3 variant; copies: 2 + 2
B19: GpH7-B3/GpL16-k0 with P329H introduced into GpH7-B3 (antibody, human IgG1)
heavy: not shown
light: B1 light
notes: as for B18
B20: GpH7-B3/GpL16-k0 with N325R introduced into GpH7-B3 (antibody, human IgG1)
heavy: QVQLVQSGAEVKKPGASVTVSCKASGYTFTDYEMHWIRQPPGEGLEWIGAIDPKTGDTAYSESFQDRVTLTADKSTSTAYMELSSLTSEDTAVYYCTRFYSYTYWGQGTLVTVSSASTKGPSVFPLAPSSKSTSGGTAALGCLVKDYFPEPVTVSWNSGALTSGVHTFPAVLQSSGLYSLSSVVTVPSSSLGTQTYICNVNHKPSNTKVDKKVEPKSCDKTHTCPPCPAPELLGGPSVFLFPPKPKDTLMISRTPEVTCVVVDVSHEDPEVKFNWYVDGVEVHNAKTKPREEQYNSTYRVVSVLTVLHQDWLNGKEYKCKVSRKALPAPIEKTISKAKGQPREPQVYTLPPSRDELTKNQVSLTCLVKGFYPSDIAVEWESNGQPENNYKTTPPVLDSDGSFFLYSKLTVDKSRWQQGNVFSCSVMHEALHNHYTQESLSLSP
light: B1 light
notes: as for B18
B21: GpH7-B3/GpL16-k0 with N325W introduced into GpH7-B3 (antibody, human IgG1)
heavy: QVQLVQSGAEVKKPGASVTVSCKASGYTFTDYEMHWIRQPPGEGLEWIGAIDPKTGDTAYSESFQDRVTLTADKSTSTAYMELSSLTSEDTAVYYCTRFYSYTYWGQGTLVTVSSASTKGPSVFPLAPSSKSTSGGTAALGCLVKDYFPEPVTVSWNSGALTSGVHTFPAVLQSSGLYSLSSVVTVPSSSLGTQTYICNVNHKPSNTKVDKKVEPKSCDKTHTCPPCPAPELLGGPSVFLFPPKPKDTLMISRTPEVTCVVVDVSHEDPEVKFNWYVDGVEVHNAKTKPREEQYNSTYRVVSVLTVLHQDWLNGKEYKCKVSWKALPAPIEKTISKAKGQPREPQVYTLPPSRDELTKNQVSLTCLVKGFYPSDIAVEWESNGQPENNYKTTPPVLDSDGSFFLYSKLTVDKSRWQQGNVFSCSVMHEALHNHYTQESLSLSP
light: B1 light
notes: as for B18
B22: GpH7-B3/GpL16-k0 with P329N introduced into GpH7-B3 (antibody, human IgG1)
heavy: not shown
light: B1 light
notes: as for B18
B23: GpH7-B3/GpL16-k0 with N325P introduced into GpH7-B3 (antibody, human IgG1)
heavy: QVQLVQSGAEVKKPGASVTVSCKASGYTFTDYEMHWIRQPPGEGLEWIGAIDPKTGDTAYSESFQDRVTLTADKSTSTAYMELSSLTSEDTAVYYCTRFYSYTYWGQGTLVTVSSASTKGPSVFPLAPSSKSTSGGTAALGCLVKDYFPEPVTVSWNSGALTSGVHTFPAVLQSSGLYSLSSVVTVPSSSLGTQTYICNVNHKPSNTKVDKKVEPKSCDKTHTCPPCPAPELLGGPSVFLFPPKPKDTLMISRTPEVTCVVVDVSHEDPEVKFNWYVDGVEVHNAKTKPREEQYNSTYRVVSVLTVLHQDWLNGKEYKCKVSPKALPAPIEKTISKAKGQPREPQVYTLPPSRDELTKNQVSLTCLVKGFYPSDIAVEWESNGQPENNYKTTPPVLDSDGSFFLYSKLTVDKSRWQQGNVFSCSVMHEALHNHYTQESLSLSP
light: B1 light
notes: as for B18
B24: GpH7-B3/GpL16-k0 with Y300K introduced into GpH7-B3 (antibody, human IgG1)
heavy: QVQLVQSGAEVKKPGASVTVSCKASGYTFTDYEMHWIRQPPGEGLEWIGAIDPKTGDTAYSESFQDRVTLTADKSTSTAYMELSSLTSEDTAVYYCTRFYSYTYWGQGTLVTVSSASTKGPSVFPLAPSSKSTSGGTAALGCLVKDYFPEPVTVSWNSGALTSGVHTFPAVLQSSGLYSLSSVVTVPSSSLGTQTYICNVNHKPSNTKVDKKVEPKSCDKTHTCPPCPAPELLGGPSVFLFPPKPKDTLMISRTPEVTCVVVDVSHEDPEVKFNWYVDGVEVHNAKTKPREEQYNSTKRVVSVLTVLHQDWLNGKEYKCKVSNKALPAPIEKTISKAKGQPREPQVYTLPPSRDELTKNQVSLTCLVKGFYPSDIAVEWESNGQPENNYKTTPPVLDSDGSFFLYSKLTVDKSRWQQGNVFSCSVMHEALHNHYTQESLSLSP
light: B1 light
notes: as for B18
B25: GpH7-B3/GpL16-k0 with P329M introduced into GpH7-B3 (antibody, human IgG1)
heavy: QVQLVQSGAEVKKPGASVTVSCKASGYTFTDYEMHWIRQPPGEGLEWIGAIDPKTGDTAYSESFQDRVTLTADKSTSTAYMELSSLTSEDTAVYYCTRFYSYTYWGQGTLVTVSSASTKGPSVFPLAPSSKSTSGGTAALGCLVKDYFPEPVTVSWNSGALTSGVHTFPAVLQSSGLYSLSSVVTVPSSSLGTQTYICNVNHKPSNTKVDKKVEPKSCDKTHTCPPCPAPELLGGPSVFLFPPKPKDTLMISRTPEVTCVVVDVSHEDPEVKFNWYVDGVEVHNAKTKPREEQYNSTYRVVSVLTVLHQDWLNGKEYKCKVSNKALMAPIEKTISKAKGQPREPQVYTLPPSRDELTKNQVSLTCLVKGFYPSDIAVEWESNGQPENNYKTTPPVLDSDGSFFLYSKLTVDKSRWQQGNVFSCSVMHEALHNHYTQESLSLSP
light: B1 light
notes: as for B18
B26: GpH7-B3/GpL16-k0 with S324K introduced into GpH7-B3 (antibody, human IgG1)
heavy: not shown
light: B1 light
notes: as for B18
B27: GpH7-B3/GpL16-k0 with P329T introduced into GpH7-B3 (antibody, human IgG1)
heavy: not shown
light: B1 light
notes: as for B18
B28: GpH7-B3/GpL16-k0 with P329L introduced into GpH7-B3 (antibody, human IgG1)
heavy: not shown
light: B1 light
notes: as for B18
B29: GpH7-B3/GpL16-k0 with N325T introduced into GpH7-B3 (antibody, human IgG1)
heavy: not shown
light: B1 light
notes: as for B18
B30: GpH7-B3/GpL16-k0 with P329K introduced into GpH7-B3 (antibody, human IgG1)
heavy: not shown
light: B1 light
notes: as for B18
B31: GpH7-B3/GpL16-k0 with P329I introduced into GpH7-B3 (antibody, human IgG1)
heavy: not shown
light: B1 light
notes: as for B18
B32: GpH7-B3/GpL16-k0 with P329V introduced into GpH7-B3 (antibody, human IgG1)
heavy: not shown
light: B1 light
notes: as for B18
B33: GpH7-B3/GpL16-k0 with S324P introduced into GpH7-B3 (antibody, human IgG1)
heavy: not shown
light: B1 light
notes: as for B18
B34: GpH7-B3/GpL16-k0 with P329R introduced into GpH7-B3 (antibody, human IgG1)
heavy: not shown
light: B1 light
notes: as for B18
B35: GpH7-B3/GpL16-k0 with P329Q introduced into GpH7-B3 (antibody, human IgG1)
heavy: not shown
light: B1 light
notes: as for B18
B36: GpH7-B3/GpL16-k0 with P329F introduced into GpH7-B3 (antibody, human IgG1)
heavy: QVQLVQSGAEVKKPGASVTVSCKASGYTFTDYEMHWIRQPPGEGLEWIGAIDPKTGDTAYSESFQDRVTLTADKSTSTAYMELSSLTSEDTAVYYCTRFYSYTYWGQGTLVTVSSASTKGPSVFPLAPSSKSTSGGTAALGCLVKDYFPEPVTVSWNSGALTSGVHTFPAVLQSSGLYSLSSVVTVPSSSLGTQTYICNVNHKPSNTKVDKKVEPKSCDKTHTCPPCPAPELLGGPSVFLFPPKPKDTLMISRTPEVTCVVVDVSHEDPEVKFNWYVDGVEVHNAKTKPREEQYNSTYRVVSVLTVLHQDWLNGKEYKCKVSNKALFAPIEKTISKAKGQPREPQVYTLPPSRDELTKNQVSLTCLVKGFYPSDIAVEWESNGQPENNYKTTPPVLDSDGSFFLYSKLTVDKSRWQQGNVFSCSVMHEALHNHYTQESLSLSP
light: B1 light
notes: as for B18
B37: GpH7-B3/GpL16-k0 with N325Y introduced into GpH7-B3 (antibody, human IgG1)
heavy: not shown
light: B1 light
notes: as for B18
B38: GpH7-B3/GpL16-k0 with N325K introduced into GpH7-B3 (antibody, human IgG1)
heavy: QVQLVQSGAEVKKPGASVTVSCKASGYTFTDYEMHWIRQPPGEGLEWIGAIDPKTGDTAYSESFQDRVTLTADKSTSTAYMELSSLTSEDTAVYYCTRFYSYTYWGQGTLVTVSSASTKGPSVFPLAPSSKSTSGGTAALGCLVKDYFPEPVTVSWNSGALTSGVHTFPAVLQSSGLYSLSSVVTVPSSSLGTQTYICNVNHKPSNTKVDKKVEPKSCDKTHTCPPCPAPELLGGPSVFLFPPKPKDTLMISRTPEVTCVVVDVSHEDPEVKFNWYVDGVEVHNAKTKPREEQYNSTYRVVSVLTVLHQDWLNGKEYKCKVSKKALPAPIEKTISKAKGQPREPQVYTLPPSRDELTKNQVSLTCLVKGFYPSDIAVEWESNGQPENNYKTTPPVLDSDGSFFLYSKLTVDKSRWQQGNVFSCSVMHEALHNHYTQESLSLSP
light: B1 light
notes: as for B18

The target of one assay is T1, human FcγRIIIa(F) (human, UniProt P08637 17-208, limits assumed).
T1 construct: also called FcgRIIIaF; FcγRIIIa allotype F158
The experiment in a line: SPR (Biacore), antibody captured, FcγR as analyte. (SPR reads the build-up and loss of mass on a sensor chip optically.)
T1 sequence (P08637 other isoform, or with tags, fused parts or gaps limits assumed): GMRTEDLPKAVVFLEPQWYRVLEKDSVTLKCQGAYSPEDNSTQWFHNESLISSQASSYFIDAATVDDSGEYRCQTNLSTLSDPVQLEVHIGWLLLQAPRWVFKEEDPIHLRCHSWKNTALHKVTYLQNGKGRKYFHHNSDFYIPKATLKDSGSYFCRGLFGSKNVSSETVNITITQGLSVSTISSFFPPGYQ
Experimental: (§1) Interaction between each modified antibody and Fcγ receptor prepared in the manner described above was analyzed using the Biacore T100 (GE Healthcare), Biacore T200 (GE Healthcare), Biacore A100 or Biacore 4000. HBS-EP+ (GE Healthcare) was used for the running buffer, and measurements were carried out at 25° C. The chips used were chips in which antigen peptides, Protein A (Thermo Scientific), Protein A/G (Thermo Scientific) or Protein L (ACTIGEN or BioVision) were immobilized on the Series S Sensor Chip CM5 (GE Healthcare) or Series S Sensor Chip CM4 (GE Healthcare) by amine coupling, or chips in which preliminarily biotinylated antigen peptides were allowed to interact and then immobilized on the Series S Sensor Chip SA (certified) (GE Healthcare). The target antibodies were captured on these sensor chips, Fcγ receptor diluted with the running buffer was allowed to interact, followed by measurement of the amount of bound antibody. The amounts bound were compared between antibodies. However, since the amount of Fcγ receptor bound depends on the amount of captured antibody, the values used for comparison were first corrected by dividing the amount of Fcγ receptor bound by the captured amount of each antibody. Through reaction with 10 mM glycine-HCl at pH 1.5, the sensor chips were regenerated by washing off antibody captured on the sensor chips and used repeatedly.
(§2) Binding strength was evaluated according to the following method based on the results of analyzing the interaction with each FcγR. […] That value was then further multiplied by 100, and the resulting value was used as an indicator of relative binding activity to each FcγR.
B1: the “relative binding activity (amount bound / amount bound by GpH7-B3/GpL16-k0 x100)” value was 23 % of GpH7-B3/GpL16-k0.

For the molecule B2, the “relative binding activity (amount bound / amount bound by GpH7-B3/GpL16-k0 x100)” value was 11 % of GpH7-B3/GpL16-k0.

For B3, the “relative binding activity (amount bound / amount bound by GpH7-B3/GpL16-k0 x100)” value is 50 % of GpH7-B3/GpL16-k0.

On to B4, for which the “relative binding activity (amount bound / amount bound by GpH7-B3/GpL16-k0 x100)” value was 33 % of GpH7-B3/GpL16-k0.

With B5, the “relative binding activity (amount bound / amount bound by GpH7-B3/GpL16-k0 x100)” value was 49 % of GpH7-B3/GpL16-k0.

Regarding B6, the “relative binding activity (amount bound / amount bound by GpH7-B3/GpL16-k0 x100)” value was 12 % of GpH7-B3/GpL16-k0.

As for B7, the “relative binding activity (amount bound / amount bound by GpH7-B3/GpL16-k0 x100)” value is 17 % of GpH7-B3/GpL16-k0.

With B8, the “relative binding activity (amount bound / amount bound by GpH7-B3/GpL16-k0 x100)” value is 33 % of GpH7-B3/GpL16-k0.

For the molecule B9, the “relative binding activity (amount bound / amount bound by GpH7-B3/GpL16-k0 x100)” value was 62 % of GpH7-B3/GpL16-k0.

Consider B10, for which the “relative binding activity (amount bound / amount bound by GpH7-B3/GpL16-k0 x100)” value was 19 % of GpH7-B3/GpL16-k0.

Consider B11, for which the “relative binding activity (amount bound / amount bound by GpH7-B3/GpL16-k0 x100)” value is 29 % of GpH7-B3/GpL16-k0.

Turning to B12, the “relative binding activity (amount bound / amount bound by GpH7-B3/GpL16-k0 x100)” value is 76 % of GpH7-B3/GpL16-k0.

Turning to B13, the “relative binding activity (amount bound / amount bound by GpH7-B3/GpL16-k0 x100)” value is 23 % of GpH7-B3/GpL16-k0.

Regarding B14, the “relative binding activity (amount bound / amount bound by GpH7-B3/GpL16-k0 x100)” value is 31 % of GpH7-B3/GpL16-k0.

Consider B15, for which the “relative binding activity (amount bound / amount bound by GpH7-B3/GpL16-k0 x100)” value was 57 % of GpH7-B3/GpL16-k0.

As for B16, the “relative binding activity (amount bound / amount bound by GpH7-B3/GpL16-k0 x100)” value is 13 % of GpH7-B3/GpL16-k0.

In the case of B17, the “relative binding activity (amount bound / amount bound by GpH7-B3/GpL16-k0 x100)” value is 39 % of GpH7-B3/GpL16-k0.

The next assay deals with T2, human FcγRIIIa(F) (human, UniProt P08637 17-208, limits assumed).
T2 construct: also called FcgRIIIaF; FcγRIIIa allotype F158
The experiment in a line: SPR (Biacore), captured antibody, FcγR analyte; bound amount relative to GpH7-B3/GpL16-k0 x100.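 Note: receptor response divided by the antibody amount captured on the chip before comparison with the reference antibody, measured at 25 °C in HBS-EP+ running buffer.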
T2 sequence (P08637 other isoform, or with tags, fused parts or gaps limits assumed): as above
Experimental: as §1, §2
As for B18, the relative binding activity was 2 % of GpH7-B3/GpL16-k0.

As to B19, the relative binding activity is -1 % of GpH7-B3/GpL16-k0.

Consider B20, for which the relative binding activity is -1 % of GpH7-B3/GpL16-k0.

Regarding B21, the relative binding activity was -2 % of GpH7-B3/GpL16-k0.

Consider B22, for which the relative binding activity is 3 % of GpH7-B3/GpL16-k0.

As for B23, the relative binding activity is 0 % of GpH7-B3/GpL16-k0.

Consider B24, for which the relative binding activity was 35 % of GpH7-B3/GpL16-k0.

With B25, the relative binding activity was 0 % of GpH7-B3/GpL16-k0.

B26: the relative binding activity is 74 % of GpH7-B3/GpL16-k0.

Consider B27, for which the relative binding activity is -1 % of GpH7-B3/GpL16-k0.

For B28, the relative binding activity is 0 % of GpH7-B3/GpL16-k0.

B29: the relative binding activity was 10 % of GpH7-B3/GpL16-k0.

For the molecule B30, the relative binding activity was -1 % of GpH7-B3/GpL16-k0.

Take B31: the relative binding activity was 2 % of GpH7-B3/GpL16-k0.

For B32, the relative binding activity is 7 % of GpH7-B3/GpL16-k0.

Consider B33, for which the relative binding activity is 35 % of GpH7-B3/GpL16-k0.

For B34, the relative binding activity is -2 % of GpH7-B3/GpL16-k0.

In the case of B35, the relative binding activity was -1 % of GpH7-B3/GpL16-k0.

For the molecule B36, the relative binding activity was 0 % of GpH7-B3/GpL16-k0.

Regarding B37, the relative binding activity was 5 % of GpH7-B3/GpL16-k0.

For B38, the relative binding activity is -2 % of GpH7-B3/GpL16-k0.
